These results are taken from patent US20230151095A1 (published 2023).

T1: XENP23311 (His-tagged NKG2D-Fc) (human, UniProt P26718 78-216)
T1 chain: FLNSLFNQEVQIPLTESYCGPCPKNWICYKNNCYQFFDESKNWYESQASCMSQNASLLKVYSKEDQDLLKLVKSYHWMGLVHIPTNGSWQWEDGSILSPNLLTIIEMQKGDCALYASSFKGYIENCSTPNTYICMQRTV

B1: XENP40888 (LB_1002, 2+1 VHVL) (antibody)
chain 1: EVQLLESGGGLVQPGGSLRLSCAVSGFSLSSYGVIWVRQAPGKGLEYVSWVSSGGSTNYASSVKGRFTISRDTSKNTVYLQMNSLRAEDTAVYFCARGATNSGTDIWGPGTLVTVSSASTKGPSVFPLAPSSKSTSGGTAALGCLVKDYFPEPVTVSWNSGALTSGVHTFPAVLQSSGLYSLSSVVTVPSSSLGTQTYICNVNHKPSDTKVDKKVEPKSCDKTHTCPPCPAPELLGGPSVFLFPPKPKDTLMISRTPEVTCVVVDVSHEDPEVKFNWYVDGVEVHNAKTKPREEEYNSTYRVVSVLTVLHQDWLNGKEYKCKVSNKALPAPIEKTISKAKGQPREPQVYTLPPSREEMTKNQVSLTCDVSGFYPSDIAVEWESDGQPENNYKTTPPVLDSDGSFFLYSKLTVDKSRWEQGDVFSCSVMHEALHNHYTQKSLSLSPGK
chain 2: EVQLLESGGGLVQPGGSLRLSCAVSGFSLSSYGVIWVRQAPGKGLEYVSWVSSGGSTNYASSVKGRFTISRDTSKNTVYLQMNSLRAEDTAVYFCARGATNSGTDIWGPGTLVTVSSASTKGPSVFPLAPSSKSTSGGTAALGCLVKDYFPEPVTVSWNSGALTSGVHTFPAVLQSSGLYSLSSVVTVPSSSLGTQTYICNVNHKPSNTKVDKKVEPKSCGGGGSGGGGSEVQLVESGGGLVKPGGSLRLSCAASGFTFSSYSMNWVRQAPGKGLEWVSSISSSSSYIYYADSVKGRFTISRDNAKNSLYLQMNSLRAEDTAVYYCARGAPMGAAAGWFDPWGQGTLVTVSSGKPGSGKPGSGKPGSGKPGSDIQMTQSPSSVSASVGDRVTITCRASQGISSWLAWYQQKPGKAPKLLIYAASSLQSGVPSRFSGSGSGTDFTLTISSLQPEDFATYYCQQGVSFPRTFGGGTKVEIKGGGGSGGGGSKTHTCPPCPAPELLGGPSVFLFPPKPKDTLMISRTPEVTCVVVDVSHEDPEVKFNWYVDGVEVHNAKTKPREEQYNSTYRVVSVLTVLHQDWLNGKEYKCKVSNKALPAPIEKTISKAKGQPREPQVYTLPPSREQMTKNQVKLTCLVKGFYPSDIAVEWESNGQPENNYKTTPPVLDSDGSFFLYSKLTVDKSRWQQGNVFSCSVMHEALHNHYTQKSLSLSPGK
chain 3: DIVMTQSPSSLSASVGDRVTITCRASQSINSWLSWYQQKPGKPPKLLIYGASNLASGVPSRFKGSGSGTDFTLTISSLQPEDFATYYCQNNYGIIAAGATFGGGTKVEIKRTVAAPSVFIFPPSDEQLKSGTASVVCLLNNFYPREAKVQWKVDNALQSGNSQESVTEQDSKDSTYSLSSTLTLSKADYEKHKVYACEVTHQGLSSPVTKSFNRGEC
B2: XENP40552 (LB_1001, mAb-scFv VHVL) (antibody)
chain 1: EVQLLESGGGLVQPGGSLRLSCAVSGFSLSSYGVIWVRQAPGKGLEYVSWVSSGGSTNYASSVKGRFTISRDTSKNTVYLQMNSLRAEDTAVYFCARGATNSGTDIWGPGTLVTVSSASTKGPSVFPLAPSSKSTSGGTAALGCLVKDYFPEPVTVSWNSGALTSGVHTFPAVLQSSGLYSLSSVVTVPSSSLGTQTYICNVNHKPSDTKVDKKVEPKSCDKTHTCPPCPAPELLGGPSVFLFPPKPKDTLMISRTPEVTCVVVDVSHEDPEVKFNWYVDGVEVHNAKTKPREEEYNSTYRVVSVLTVLHQDWLNGKEYKCKVSNKALPAPIEKTISKAKGQPREPQVYTLPPSREEMTKNQVSLTCDVSGFYPSDIAVEWESDGQPENNYKTTPPVLDSDGSFFLYSKLTVDKSRWEQGDVFSCSVMHEALHNHYTQKSLSLSPGK
chain 2: not shown
chain 3: DIVMTQSPSSLSASVGDRVTITCRASQSINSWLSWYQQKPGKPPKLLIYGASNLASGVPSRFKGSGSGTDFTLTISSLQPEDFATYYCQNNYGIIAAGATFGGGTKVEIKRTVAAPSVFIFPPSDEQLKSGTASVVCLLNNFYPREAKVQWKVDNALQSGNSQESVTEQDSKDSTYSLSSTLTLSKADYEKHKVYACEVTHQGLSSPVTKSFNRGEC
B3: XENP41338 (LB_1002, 2+1 VLVH) (antibody)
chain 1: EVQLLESGGGLVQPGGSLRLSCAVSGFSLSSYGVIWVRQAPGKGLEYVSWVSSGGSTNYASSVKGRFTISRDTSKNTVYLQMNSLRAEDTAVYFCARGATNSGTDIWGPGTLVTVSSASTKGPSVFPLAPSSKSTSGGTAALGCLVKDYFPEPVTVSWNSGALTSGVHTFPAVLQSSGLYSLSSVVTVPSSSLGTQTYICNVNHKPSDTKVDKKVEPKSCDKTHTCPPCPAPELLGGPSVFLFPPKPKDTLMISRTPEVTCVVVDVSHEDPEVKFNWYVDGVEVHNAKTKPREEEYNSTYRVVSVLTVLHQDWLNGKEYKCKVSNKALPAPIEKTISKAKGQPREPQVYTLPPSREEMTKNQVSLTCDVSGFYPSDIAVEWESDGQPENNYKTTPPVLDSDGSFFLYSKLTVDKSRWEQGDVFSCSVMHEALHNHYTQKSLSLSPGK
chain 2: EVQLLESGGGLVQPGGSLRLSCAVSGFSLSSYGVIWVRQAPGKGLEYVSWVSSGGSTNYASSVKGRFTISRDTSKNTVYLQMNSLRAEDTAVYFCARGATNSGTDIWGPGTLVTVSSASTKGPSVFPLAPSSKSTSGGTAALGCLVKDYFPEPVTVSWNSGALTSGVHTFPAVLQSSGLYSLSSVVTVPSSSLGTQTYICNVNHKPSNTKVDKKVEPKSCGGGGSGGGGSDIQMTQSPSSVSASVGDRVTITCRASQGISSWLAWYQQKPGKAPKLLIYAASSLQSGVPSRFSGSGSGTDFTLTISSLQPEDFATYYCQQGVSFPRTFGGGTKVEIKGKPGSGKPGSGKPGSGKPGSEVQLVESGGGLVKPGGSLRLSCAASGFTFSSYSMNWVRQAPGKGLEWVSSISSSSSYIYYADSVKGRFTISRDNAKNSLYLQMNSLRAEDTAVYYCARGAPMGAAAGWFDPWGQGTLVTVSSGGGGSGGGGSKTHTCPPCPAPELLGGPSVFLFPPKPKDTLMISRTPEVTCVVVDVSHEDPEVKFNWYVDGVEVHNAKTKPREEQYNSTYRVVSVLTVLHQDWLNGKEYKCKVSNKALPAPIEKTISKAKGQPREPQVYTLPPSREQMTKNQVKLTCLVKGFYPSDIAVEWESNGQPENNYKTTPPVLDSDGSFFLYSKLTVDKSRWQQGNVFSCSVMHEALHNHYTQKSLSLSPGK
chain 3: DIVMTQSPSSLSASVGDRVTITCRASQSINSWLSWYQQKPGKPPKLLIYGASNLASGVPSRFKGSGSGTDFTLTISSLQPEDFATYYCQNNYGIIAAGATFGGGTKVEIKRTVAAPSVFIFPPSDEQLKSGTASVVCLLNNFYPREAKVQWKVDNALQSGNSQESVTEQDSKDSTYSLSSTLTLSKADYEKHKVYACEVTHQGLSSPVTKSFNRGEC
B4: XENP40375 (1D7B4, 1+1 VHVL) (antibody)
chain 1: EVQLLESGGGLVQPGGSLRLSCAVSGFSLSSYGVIWVRQAPGKGLEYVSWVSSGGSTNYASSVKGRFTISRDTSKNTVYLQMNSLRAEDTAVYFCARGATNSGTDIWGPGTLVTVSSASTKGPSVFPLAPSSKSTSGGTAALGCLVKDYFPEPVTVSWNSGALTSGVHTFPAVLQSSGLYSLSSVVTVPSSSLGTQTYICNVNHKPSDTKVDKKVEPKSCDKTHTCPPCPAPELLGGPSVFLFPPKPKDTLMISRTPEVTCVVVDVSHEDPEVKFNWYVDGVEVHNAKTKPREEEYNSTYRVVSVLTVLHQDWLNGKEYKCKVSNKALPAPIEKTISKAKGQPREPQVYTLPPSREEMTKNQVSLTCDVSGFYPSDIAVEWESDGQPENNYKTTPPVLDSDGSFFLYSKLTVDKSRWEQGDVFSCSVMHEALHNHYTQKSLSLSPGK
chain 2: not shown
chain 3: DIVMTQSPSSLSASVGDRVTITCRASQSINSWLSWYQQKPGKPPKLLIYGASNLASGVPSRFKGSGSGTDFTLTISSLQPEDFATYYCQNNYGIIAAGATFGGGTKVEIKRTVAAPSVFIFPPSDEQLKSGTASVVCLLNNFYPREAKVQWKVDNALQSGNSQESVTEQDSKDSTYSLSSTLTLSKADYEKHKVYACEVTHQGLSSPVTKSFNRGEC
B5: XENP41343 (1D2B4, mAb-scFv VLVH) (antibody)
chain 1: EVQLLESGGGLVQPGGSLRLSCAVSGFSLSSYGVIWVRQAPGKGLEYVSWVSSGGSTNYASSVKGRFTISRDTSKNTVYLQMNSLRAEDTAVYFCARGATNSGTDIWGPGTLVTVSSASTKGPSVFPLAPSSKSTSGGTAALGCLVKDYFPEPVTVSWNSGALTSGVHTFPAVLQSSGLYSLSSVVTVPSSSLGTQTYICNVNHKPSDTKVDKKVEPKSCDKTHTCPPCPAPELLGGPSVFLFPPKPKDTLMISRTPEVTCVVVDVSHEDPEVKFNWYVDGVEVHNAKTKPREEEYNSTYRVVSVLTVLHQDWLNGKEYKCKVSNKALPAPIEKTISKAKGQPREPQVYTLPPSREEMTKNQVSLTCDVSGFYPSDIAVEWESDGQPENNYKTTPPVLDSDGSFFLYSKLTVDKSRWEQGDVFSCSVMHEALHNHYTQKSLSLSPGK
chain 2: not shown
chain 3: DIVMTQSPSSLSASVGDRVTITCRASQSINSWLSWYQQKPGKPPKLLIYGASNLASGVPSRFKGSGSGTDFTLTISSLQPEDFATYYCQNNYGIIAAGATFGGGTKVEIKRTVAAPSVFIFPPSDEQLKSGTASVVCLLNNFYPREAKVQWKVDNALQSGNSQESVTEQDSKDSTYSLSSTLTLSKADYEKHKVYACEVTHQGLSSPVTKSFNRGEC
B6: XENP41333 (LB_1001, 1+1 VLVH) (antibody)
chain 1: EVQLLESGGGLVQPGGSLRLSCAVSGFSLSSYGVIWVRQAPGKGLEYVSWVSSGGSTNYASSVKGRFTISRDTSKNTVYLQMNSLRAEDTAVYFCARGATNSGTDIWGPGTLVTVSSASTKGPSVFPLAPSSKSTSGGTAALGCLVKDYFPEPVTVSWNSGALTSGVHTFPAVLQSSGLYSLSSVVTVPSSSLGTQTYICNVNHKPSDTKVDKKVEPKSCDKTHTCPPCPAPELLGGPSVFLFPPKPKDTLMISRTPEVTCVVVDVSHEDPEVKFNWYVDGVEVHNAKTKPREEEYNSTYRVVSVLTVLHQDWLNGKEYKCKVSNKALPAPIEKTISKAKGQPREPQVYTLPPSREEMTKNQVSLTCDVSGFYPSDIAVEWESDGQPENNYKTTPPVLDSDGSFFLYSKLTVDKSRWEQGDVFSCSVMHEALHNHYTQKSLSLSPGK
chain 2: not shown
chain 3: DIVMTQSPSSLSASVGDRVTITCRASQSINSWLSWYQQKPGKPPKLLIYGASNLASGVPSRFKGSGSGTDFTLTISSLQPEDFATYYCQNNYGIIAAGATFGGGTKVEIKRTVAAPSVFIFPPSDEQLKSGTASVVCLLNNFYPREAKVQWKVDNALQSGNSQESVTEQDSKDSTYSLSSTLTLSKADYEKHKVYACEVTHQGLSSPVTKSFNRGEC
B7: XENP41344 (1D7B4, mAb-scFv VLVH) (antibody)
chain 1: EVQLLESGGGLVQPGGSLRLSCAVSGFSLSSYGVIWVRQAPGKGLEYVSWVSSGGSTNYASSVKGRFTISRDTSKNTVYLQMNSLRAEDTAVYFCARGATNSGTDIWGPGTLVTVSSASTKGPSVFPLAPSSKSTSGGTAALGCLVKDYFPEPVTVSWNSGALTSGVHTFPAVLQSSGLYSLSSVVTVPSSSLGTQTYICNVNHKPSDTKVDKKVEPKSCDKTHTCPPCPAPELLGGPSVFLFPPKPKDTLMISRTPEVTCVVVDVSHEDPEVKFNWYVDGVEVHNAKTKPREEEYNSTYRVVSVLTVLHQDWLNGKEYKCKVSNKALPAPIEKTISKAKGQPREPQVYTLPPSREEMTKNQVSLTCDVSGFYPSDIAVEWESDGQPENNYKTTPPVLDSDGSFFLYSKLTVDKSRWEQGDVFSCSVMHEALHNHYTQKSLSLSPGK
chain 2: not shown
chain 3: DIVMTQSPSSLSASVGDRVTITCRASQSINSWLSWYQQKPGKPPKLLIYGASNLASGVPSRFKGSGSGTDFTLTISSLQPEDFATYYCQNNYGIIAAGATFGGGTKVEIKRTVAAPSVFIFPPSDEQLKSGTASVVCLLNNFYPREAKVQWKVDNALQSGNSQESVTEQDSKDSTYSLSSTLTLSKADYEKHKVYACEVTHQGLSSPVTKSFNRGEC

This assay concerns the target T1, XENP23311 (His-tagged NKG2D-Fc). Description: Octet.
Consider B1, for which the affinity, expressed as Kd, was 158 nM. For B2 the value was 95.1 nM; for B3, 630 nM; for B4, 7.72 nM. For B5 the value was 115 nM; for B6, 42 nM; for B7, 28.9 nM.
